Assay results published in IntAct's records for PubMed 19130088.

B1: Calcium-dependent protein kinase 4 (Arabidopsis thaliana (Mouse-ear cress)), Q38869 (parent)
chain: MEKPNPRRPSNSVLPYETPRLRDHYLLGKKLGQGQFGTTYLCTEKSSSANYACKSIPKRKLVCREDYEDVWREIQIMHHLSEHPNVVRIKGTYEDSVFVHIVMEVCEGGELFDRIVSKGCFSEREAAKLIKTILGVVEACHSLGVMHRDLKPENFLFDSPSDDAKLKATDFGLSVFYKPGQYLYDVVGSPYYVAPEVLKKCYGPEIDVWSAGVILYILLSGVPPFWAETESGIFRQILQGKIDFKSDPWPTISEGAKDLIYKMLDRSPKKRISAHEALCHPWIVDEHAAPDKPLDPAVLSRLKQFSQMNKIKKMALRVIAERLSEEEIGGLKELFKMIDTDNSGTITFEELKAGLKRVGSELMESEIKSLMDAADIDNSGTIDYGEFLAATLHINKMEREENLVVAFSYFDKDGSGYITIDELQQACTEFGLCDTPLDDMIKEIDLDNDGKIDFSEFTAMMKKGDGVGRSRTMRNNLNFNIAEAFGVEDTSSTAKSDDSPK
partner: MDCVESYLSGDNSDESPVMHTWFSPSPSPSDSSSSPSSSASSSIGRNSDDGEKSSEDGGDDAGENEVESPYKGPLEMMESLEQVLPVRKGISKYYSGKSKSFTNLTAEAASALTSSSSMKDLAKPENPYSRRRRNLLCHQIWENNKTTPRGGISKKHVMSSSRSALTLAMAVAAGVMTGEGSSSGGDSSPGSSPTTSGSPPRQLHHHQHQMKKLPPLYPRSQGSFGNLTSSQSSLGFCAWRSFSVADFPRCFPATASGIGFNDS

Variants of: B1
Settings: with o3l1_arath O3L1, Q9C593

effect of a mutation on the interaction | Variant
disrupting interaction | D149A;F305A
disrupting interaction | D170A

More lines, now with the values behind:

Variant | effect of a mutation on the interaction
D149A | disrupting interaction
D170A;F305A | disrupting interaction
